The values that follow come from patent US20110059095A1 (Regeneron, published 2011).

The target of assay [1] is T1, C-terminal biotinylated human PAR-2 peptide SEQ ID NO:877 (Gly-40 to Ala) (human, not fully specified; C-terminal biotin (K-B)).
T1 construct: alanine-scan mutant
T1 peptide: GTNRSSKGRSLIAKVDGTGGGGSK
In words: alanine scan by biolayer interferometry (Octet Red): C-terminal biotin peptide on streptavidin tips, 200 nM antibody; T1/2 relative to wild-type peptide SEQ ID NO:871. The method, then:
(§1) In order to more particularly identify the amino acids of PAR-2 with which the PAR-2 antibodies interact, an alanine scanning study was carried out using peptides comprising the activating PAR-2 protease cleavage site.
(§2) The ability of each peptide mutant to bind to PAR-2 antibodies was measured using biolayer interferometry (Octet Red; ForteBio). Each peptide (2.5 μg/ml) was captured on streptavidin coated biosensor tips (Octet SA sensor) for 10 seconds. To measure binding and dissociation between each peptide and PAR-2 antibody, the peptide-coated biosensors were contacted with 200 nM solutions of PAR-2 antibodies for 5 minutes (binding) followed by transfer to buffer with no antibody for 10 min (dissociation). […] The results are expressed as percent binding and percent T_{1/2} relative to WT peptide (Tables 24-28).

Assay [2] addresses T2, C-terminal biotinylated human PAR-2 peptide SEQ ID NO:876 (Ile-39 to Ala) (human, not fully specified; C-terminal biotin (K-B)).
T2 construct: alanine-scan mutant
T2 peptide: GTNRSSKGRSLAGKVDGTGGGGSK
The description is as above. Here is the method: as §1, §2

Assay [3] addresses T3, C-terminal biotinylated human PAR-2 peptide SEQ ID NO:879 (Val-42 to Ala) (human, not fully specified; C-terminal biotin (K-B)).
T3 construct: alanine-scan mutant
T3 peptide: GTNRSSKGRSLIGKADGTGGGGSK
As to the kind of experiment: BLI Exp2. Here is the method: as §1, §2

For assay [4], the target named is T4, C-terminal biotinylated human PAR-2 peptide SEQ ID NO:875 (Leu-38 to Ala) (human, not fully specified; C-terminal biotin (K-B)).
T4 construct: alanine-scan mutant
T4 peptide: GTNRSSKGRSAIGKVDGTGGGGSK
As to the kind of experiment: BLI Exp2. The method, then: as §1, §2

The target of assay [5] is T5, C-terminal biotinylated human PAR-2 peptide SEQ ID NO:880 (Asp-43 to Ala) (human, not fully specified; C-terminal biotin (K-B)).
T5 construct: alanine-scan mutant
T5 peptide: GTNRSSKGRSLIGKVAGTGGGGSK
As to the kind of experiment: BLI Exp2. Here is the method:
as §1, §2

Assay [6] deals with T6, C-terminal biotinylated human PAR-2 peptide SEQ ID NO:882 (Thr-45 to Ala) (human, not fully specified; C-terminal biotin (K-B)).
T6 construct: alanine-scan mutant
T6 peptide: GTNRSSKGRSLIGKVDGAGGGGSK
As to the kind of experiment: BLI Exp2. Here is the method: as §1, §2

In assay [7] the target is T7, C-terminal biotinylated human PAR-2 peptide SEQ ID NO:872 (Gly-35 to Ala) (human, not fully specified; C-terminal biotin (K-B)).
T7 construct: alanine-scan mutant
T7 peptide: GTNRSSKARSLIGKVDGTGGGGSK
In words: BLI Exp2. Here is the method:
as §1, §2

The target of assay [8] is T8, C-terminal biotinylated human PAR-2 14-mer peptide SEQ ID NO:887 (Val-42 and Asp-43 to Ala) (human, not fully specified; C-terminal biotin (K-B)).
T8 peptide: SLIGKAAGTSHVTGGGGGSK
In words: BLI Exp2. Here is the method: as §1, §2

Assay [9] deals with T9, C-terminal biotinylated human PAR-2 peptide SEQ ID NO:873 (Arg-36 to Ala) (human, not fully specified; C-terminal biotin (K-B)).
T9 construct: alanine-scan mutant
T9 peptide: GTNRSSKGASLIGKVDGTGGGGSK
As to the kind of experiment: BLI Exp2. Here is the method: as §1, §2

The target in assay [10] is T10, C-terminal biotinylated human PAR-2 peptide SEQ ID NO:878 (Lys-41 to Ala) (human, not fully specified; C-terminal biotin (K-B)).
T10 construct: alanine-scan mutant
T10 peptide: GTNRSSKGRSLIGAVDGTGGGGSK
In words: BLI Exp2. The method, then: as §1, §2

Another assay concerns the target T11, full length mouse PAR-2 (mouse, UniProt P55086 26-399).
T11 construct: also called 293/D9/mPAR-2rec cells
T11 chain: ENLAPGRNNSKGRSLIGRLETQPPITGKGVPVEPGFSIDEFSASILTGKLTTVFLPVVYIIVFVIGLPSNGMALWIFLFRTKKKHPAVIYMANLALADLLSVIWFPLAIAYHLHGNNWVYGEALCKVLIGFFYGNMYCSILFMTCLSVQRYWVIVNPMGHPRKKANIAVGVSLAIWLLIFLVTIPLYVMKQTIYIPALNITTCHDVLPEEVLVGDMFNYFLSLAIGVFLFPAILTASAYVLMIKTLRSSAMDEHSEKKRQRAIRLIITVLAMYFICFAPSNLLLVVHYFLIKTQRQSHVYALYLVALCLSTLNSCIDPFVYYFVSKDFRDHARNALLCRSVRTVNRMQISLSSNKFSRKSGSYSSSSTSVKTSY
In words: MSD cell binding. The method in brief: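 Antibodies, two-fold dilutions from 100 nM to 0.098 nM, bound for 1 h at room temperature to HEK293/D9 cells stably expressing human or mouse PAR-2, detected by sulfo-tagged anti-human IgG electrochemiluminescence. Parental 293/D9 signal was subtracted; EC50 and Bmax came from sigmoidal dose-response fits.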

B1: H4H581P (antibody, human IgG4, V domains shown)
VH: QVQLVESGGGVVQPGRSLRLSCVASGFTFSRYGIHWVRQAPGKGLEWVIVISYDGINKYYADSVKGRFTISRDNSKNTVYLQMNSLRAEDTAVYYCAKGDFWSGYFDYWGQGTLVTVSS
VL: DIVMTQTPLSSPVTLGQPASISCRSSQSLVHSDGNTYLSWLHQRPGQPPRLLIYKISNRFSGVPDRFSGSGAGTDFTLQISRVEAEDVGIYYCMQATQFPTFGGGTKVEIK
notes: also called mAb H4H581P; H1H581P variable regions
As to B1, the “percent of T1/2 relative to wild-type peptide (average of duplicate experiments)” value is 24% in assay [1] and 0.1% in assay [2]. For the same molecule, the “% Rel Binding” value was determined as 46% in [3]; 19% in assay [4]; 5% in [5]; 91% in assay [6]; 97% in [7]; 105% in [9]. For the same molecule, the “% Rel Binding” value in assay [10] came out at 109%. In addition, the “% Rel T1/2” value came out at 1% in assay [3]; 0% in assay [4]; 4% in assay [5]; 94% in assay [6]; 117% in assay [7]; 90% in assay [9]. Besides, in assay [10], the “% Rel T1/2” value was 49%. The binding result in [8] is listed as “no binding (tested: 200 nM antibody)”.

B2: H4H588N (antibody, human IgG4, V domains shown)
VH: EVQLLESGGGLVQPGGSLRLSCAASGFTFSSYAMTWVRQAPGKGLYWVSAISGGRGSAYYADSVKGRFTISRDNSKNTLYLQMNSLRAEDTAVYYCAKEGDSGYDLAYWGRGTLVTVSS
VL: DIQMTQSPSSLSASVGDRVTITCRARQGISNNLAWLQQKPGKAPKSLIYAASSLQSGIPSKFSGSGSGTYFTLTISSLQPEDFATYYCQQYKSSPLTFGGGTKVEIK
notes: also called H2M588N variable regions
In the case of B2, the binding result is recorded as “no binding (tested: 100 nM to 0.098 nM antibody)” with full length mouse PAR-2 and “no binding (tested: 200 nM antibody)” in [8]. In addition, the figures for the “percent of T1/2 relative to wild-type peptide (average of duplicate experiments)” value in assay [1] and in [2] were 0.5% and 22%, respectively. Also, the “% Rel Binding” value in assay [3] worked out at 52%; in assay [4] it was 105%; in assay [5] it was 8%; in assay [6], 121%; in assay [7], 99%; in [9], 115%. Also, the “% Rel Binding” value in assay [10] turned out to be 121%. Besides, the “% Rel T1/2” value in assay [3] amounted to 0%; in assay [4], 42%; in assay [5], 5%; in assay [6], 33%; in assay [7], 253%; in assay [9], 180%. In addition, in assay [10], the “% Rel T1/2” value worked out at 60%.

B3: H4H583P (antibody, human IgG4, V domains shown)
VH: QVQLVESGGGVVQPGMSLRLSCTASGFTFRRYGMHWVRQAPGKGLEWVAVIWYDGSNKYYADSVKGRFTITRDNSKNTLYLQMNSLRAEDTAIYFCASEITIGDWFDPRGQGTLVTVSS
VL: AIQMTQSPSSLSASVGDRVTITCRASQGIRNDLGWFQQKPGKVPKLLIYAASTLHSGVPSRFSGSGFGTDFTLTISSLQPEDFATYYCLQDFNYPLTFGGGTKVEIK
notes: also called H1H583P variable regions
In the assay with full length mouse PAR-2, B3 displayed a Bmax of 7220 MSD Unit and an EC50 of 9.28 nM.

In general, EC50 refers to the concentration giving half of the maximal effect.
